Measured values from paper PMC10083601 (Proceedings of the National Academy of Sciences of the …, 2023).

Target: T1, N-terminally truncated tyrosine phosphorylated STAT1 (residues 136 to 750, N-terminally tagged with GB1) (UniProt P42224 136-750)
T1 sequence: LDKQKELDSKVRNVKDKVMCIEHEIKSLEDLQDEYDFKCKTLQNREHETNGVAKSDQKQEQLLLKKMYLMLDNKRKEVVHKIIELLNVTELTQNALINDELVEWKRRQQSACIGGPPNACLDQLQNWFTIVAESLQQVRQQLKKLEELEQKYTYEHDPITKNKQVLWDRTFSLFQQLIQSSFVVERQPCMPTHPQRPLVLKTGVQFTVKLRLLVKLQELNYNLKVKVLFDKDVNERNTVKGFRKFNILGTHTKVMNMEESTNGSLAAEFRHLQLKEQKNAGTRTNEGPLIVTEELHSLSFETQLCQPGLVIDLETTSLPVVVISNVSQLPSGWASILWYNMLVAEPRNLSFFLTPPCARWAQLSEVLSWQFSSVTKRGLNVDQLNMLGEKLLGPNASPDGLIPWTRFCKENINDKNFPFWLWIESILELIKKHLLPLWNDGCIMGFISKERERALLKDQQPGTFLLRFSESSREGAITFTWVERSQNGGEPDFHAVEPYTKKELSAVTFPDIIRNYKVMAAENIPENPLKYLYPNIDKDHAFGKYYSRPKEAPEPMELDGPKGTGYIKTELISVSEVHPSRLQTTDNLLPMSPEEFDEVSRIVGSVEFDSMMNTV
Assay: ITC

B1: Rabies virus (strain Nishigahara) P3 protein (natural protein)
chain: MSRLHLDDGKLPDLGRMSKAGEGRHQEDFQMDEGEDPSLLFQSYLDNVGVQIVRQMRSGERFLKIWSQTVEEIISYVTVNFPNPSGRSSEDKSTQTTSQEPKKETTSTPSQRKSQSLKSRTMAQTASGPPSLEWSATNEEDDLSVEAEIAHQIAESFSKKYKFPSRSSGIFLYNFEQLKMNLDDIVKEAKNVPGVTRLAHDGSKLPLRCVLGWVALANSKKFQLLVEANKLNKIMQDDLNRYASC
  Kd: 800 nM
